Source: patent publication US11453711B2, “Fusion proteins of GLP-1 and GDF15 and conjugates thereof” (BEIJING QL BIOPHARMACEUTICAL CO., LTD., priority 2019, dated 2022)

Experiment: Body weight and food intake in C57BL/6 mice, fusion protein conjugates, 30 nmol/kg daily 10 days
Format: in vivo
Protocol: 10 week old male C57BL/6 mice were injected everyday subcutaneously with 15 nmol/kg of the fusion protein conjugates (i.e., MLC002, MLC 004, MLC 005, MLC 006, MLC 007, MLC 008, and MLC 009) for 14 days. Food intake and body weight were measured daily and five animals were used for each treatment group. Body weight (BW) was monitored for each individual animal, but food intake for each group animals was measured together. Day 1 and Day 14 are first day and last day of molecule dosage. % BW loss=100*(BW on Day n-BW on Day 1)/(BW on Day 1). Cumulative food intake on Day n represents sum of food intake from Day 1 to Day n. Data are indicated as mean values and standard error (SEM) or pooled values. Statistical analysis was performed by One-way ANOVA. Body weight reduction on Day 11 is calculated by −1*(% BW loss−% BW loss of vehicle group); Cumulative food intake reduction is calculated by −100*(cumulative food intake-cumulative food intake of vehicle)/cumulative food intake of vehicle.
Data were calculated in the same way as described above. Day 1 and Day 10 are first day and last day of the administration.
MLC014 was used as a negative control. MLC014 has an amino acid sequence of SEQ ID NO: 261, which contains a linker fused to the N terminal of GDF15, with a CRM conjugated to the lysine residue in the linker. Tirzepatide was also used as a control.

| Molecule | Body weight reduction at 30 nmol/kg (% reduction compared to vehicle)(Day11) [%] | Cumulative food intake reduction at 30 nmol/kg (% reduction compared to vehicle)(Day11) [%] |
| --- | --- | --- |
| Tirzepatide [reference compound] | 10.5 | 23.0 |
| MLC045: fusion polypeptide SEQ ID NO: 328 conjugated with Moiety A at 1K and 55K of Linker (conjugate, Moiety A conjugated at linker K1, K55) HGEGTFTSDVSSYLEEQAAREFIAWLVRGGGKQEPGAQPGQEPGAQPGQEPGAQPGQEPGAQPGQEPGAQPGQEPGAQPGAQPGAKPGAQPGAQPGAQPGAQPGAQPGAQPARQGDHCPLGPGRCCRLHTVRASLEDLGWADWVLSPREVQVTMCIGACPSQFRAANLHAQIKTSLHRLRPDTVPAPCCVPASYNPMVLIQRTDTGVSLQTYDDLLARDCHCI | 20.6 | 27.8 |
| MLC080: fusion polypeptide SEQ ID NO: 374 conjugated with Moiety B at 35C of Linker (conjugate, Moiety B conjugated at linker C35) HGEGTFTSDVSSYLEEQAAKEFIAWLVRGGGGQEPGAQPGQEPGAQPGQEPGAQPGQEPGAQPGQCPGAQPGQEPGAQPGQEPGAQPGAQPGAQPGAQPGAQPGAQPGAQPARQGDHCPLGPGRCCRLHTVRASLEDLGWADWVLSPREVQVTMCIGACPSQFRAANLHAQIKTSLHRLKPDTVPAPCCVPASYNPMVLIQKTDTGVSLQTYDDLLAKDCHCI | 17.2 | 33.2 |
| MLC012: fusion polypeptide SEQ ID NO: 259 conjugated with Moiety A at 12K of Linker (conjugate, Moiety A conjugated at linker K12) HGEGTFTSDVSSYLEEQAAREFIAWLVRGGGGQEPGQEPGQEKGQEPGQEPGQEPGQEPGQEPGQEPGQEPARQGDHCPLGPGRCCRLHTVRASLEDLGWADWVLSPREVQVTMCIGACPSQFRAANLHAQIKTSLHRLRPDTVPAPCCVPASYNPMVLIQRTDTGVSLQTYDDLLARDCHCI | 30.6 | 37.2 |
| MLC030: fusion polypeptide SEQ ID NO: 277 conjugated with Moiety A at 15K of Linker (conjugate, Moiety A conjugated at linker K15) HGEGTFTSDVSSYLEEQAAREFIAWLVRGGGGQEPGQEPGQEPGQKPGQEPGQEPGQEPGQEPGAQPGAQPGAQPGAQPGAQPGAQPGAQPGAQPGAQPGAQPGAQPGAQPARQGDHCPLGPGRCCRLHTVRASLEDLGWADWVLSPREVQVTMCIGACPSQFRAANLHAQIKTSLHRLRPDTVPAPCCVPASYNPMVLIQRTDTGVSLQTYDDLLARDCHCI | 22.0 | 29.1 |
| MLC014: negative control, SEQ ID NO: 261: linker fused to N terminal of GDF15, CRM conjugated to lysine in the linker; GDF15 derivative (conjugate, CRM conjugated to linker lysine, GDF15 derivative) SEPATSGQEKGQEPGQEPGQEPGQEPGQEPGAQPGAQPARQGDHCPLGPGRCCRLHTVRASLEDLGWADWVLSPREVQVTMCIGACPSQFRAANLHAQIKTSLHRLRPDTVPAPCCVPASYNPMVLIQRTDTGVSLQTYDDLLARDCHCI | 9.5 | 27.3 |
| MLC043: fusion polypeptide SEQ ID NO: 326 conjugated with Moiety A at 26K of GLP-1 (conjugate, Moiety A conjugated at K26) HGEGTFTSDVSSYLEEQAAKEFIAWLVRGGGGQEPGAQPGQEPGAQPGQEPGAQPGQEPGAQPGQEPGAQPGQEPGAQPGAQPGAQPGAQPARQGDHCPLGPGRCCRLHTVRASLEDLGWADWVLSPREVQVTMCIGACPSQFRAANLHAQIKTSLHRLRPDTVPAPCCVPASYNPMVLIQRTDTGVSLQTYDDLLARDCHCI | 17.4 | 30.5 |
| MLC027: fusion polypeptide SEQ ID NO: 274 conjugated with Moiety A at 55K of Linker (conjugate, Moiety A conjugated at linker K55) HGEGTFTSDVSSYLEEQAAREFIAWLVRGGGGAQPGAQPGAQPGAQPGAQPGAQPGAQPGAQPGQEPGAQPGQEPGAQPGQEPGQKPGQEPGQEPGQEPGQEPGAQPGAQPARQGDHCPLGPGRCCRLHTVRASLEDLGWADWVLSPREVQVTMCIGACPSQFRAANLHAQIKTSLHRLRPDTVPAPCCVPASYNPMVLIQRTDTGVSLQTYDDLLARDCHCI | 19.1 | 40.7 |
| MLC018: fusion polypeptide SEQ ID NO: 265 conjugated with Moiety A at 52K of Linker (conjugate, Moiety A conjugated at linker K52) HGEGTFTSDVSSYLEEQAAREFIAWLVRGGGGQEPGAQPGQEPGAQPGQEPGAQPGQEPGAQPGQEPGAQPGQEPGAQPGQEKGAQPGQEPGAQPGQEPGAQPGQEPGAQPARQGDHCPLGPGRCCRLHTVRASLEDLGWADWVLSPREVQVTMCIGACPSQFRAANLHAQIKTSLHRLRPDTVPAPCCVPASYNPMVLIQRTDTGVSLQTYDDLLARDCHCI | 23.5 | 48.1 |
| MLC046: fusion polypeptide SEQ ID NO: 329 conjugated with Moiety A at 60K of linker (conjugate, Moiety A conjugated at linker K60) HGEGTFTSDVSSYLEEQAAREFIAWLVRGGGGQEPGAQPGQEPGAQPGQEPGAQPGQEPGAQPGQEPGAQPGQEPGAQPGAQPGAQPGAQKGAQPGAQPGAQPGAQPGAQPARQGDHCPLGPGRCCRLHTVRASLEDLGWADWVLSPREVQVTMCIGACPSQFRAANLHAQIKTSLHRLRPDTVPAPCCVPASYNPMVLIQRTDTGVSLQTYDDLLARDCHCI | 24.6 | 41.4 |
| MLC064: fusion polypeptide SEQ ID NO: 359 conjugated with Moiety A at 51K of Linker (conjugate, Moiety A conjugated at linker K51) HGEGTFTSDVSSYLEEQAAREFIAWLVRGGGGQEPGAQPGQEPGAQPGQEPGAQPGQEPGAQPGQEPGAQPGQEPGAQPGAKPGAQPGAQPGAQPGAQPGAQPGAQPGAQPARQGDHCPLGPGRCCRLHTVRASLEDLGWADWVLSPREVQVTMCIGACPSQFRAANLHAQIKTSLHRLRPDTVPAPCCVPASYNPMVLIQRTDTGVSLQTYDDLLARDCHCI | 24.0 | 43.6 |
| MLC104: fusion polypeptide SEQ ID NO: 391 conjugated with Moiety A at 76K of Linker (conjugate, Moiety A conjugated at linker Lys76) HGEGTFTSDVSSYLEEQAAREFIAWLVRGGGGQEPGAQPGQEPGAQPGQEPGAQPGQEPGAQPGQEPGAQPGQEPGAQPGAQPGAQPGAQPGAQPGAQPGAQPGAQKGAQPARQGDHCPLGPGRCCRLHTVRASLEDLGWADWVLSPREVQVTMCIGACPSQFRAANLHAQIKTSLHRLRPDTVPAPCCVPASYNPMVLIQRTDTGVSLQTYDDLLARDCHCI | 22.7 | 29.4 |
| MLC103: fusion polypeptide SEQ ID NO: 390 conjugated with Moiety A at 71K of Linker (conjugate, Moiety A conjugated at linker Lys71) HGEGTFTSDVSSYLEEQAAREFIAWLVRGGGGQEPGAQPGQEPGAQPGQEPGAQPGQEPGAQPGQEPGAQPGQEPGAQPGAQPGAQPGAQPGAQPGAQPGAKPGAQPGAQPARQGDHCPLGPGRCCRLHTVRASLEDLGWADWVLSPREVQVTMCIGACPSQFRAANLHAQIKTSLHRLRPDTVPAPCCVPASYNPMVLIQRTDTGVSLQTYDDLLARDCHCI | 23.3 | 36.2 |
